# Data: the DeepSol protein solubility set
# Experiment: soluble on expression in E. coli; label from the status in PepcDB or PDB records
row,Sequence,soluble on expression in E. coli
1,MRGSHHHHHHTDPALRATIWVDADACPNVIKEILYRAAERMQMPLVLVANQSLRVPPSRFIRTLRVAAGFDVADNEIVRQCEAGDLVITADIPLAAEAIEKGAAALNPRGERYTPATIRERLTMRDFMDTLRASGIQTGGPDSLSQRDRQAFAAELEKWWLEVQRSRGGLCGR,soluble
2,MASIAVCPGSFDPVTYGHLDIIKRGAHIFEQVYVCVLNNSSKKPLFSVEERCELLREVTKDIPNITVETSQGLLIDYARRKNAKAILRGLRAVSDFEYEMQGTSVNRVLDESIETFFMMANNQYSFLSSSIVKEVARYDGSVSEFVPPEVELALQQKFRQGGSHHHHHH,soluble
3,MAELTETSPETPETTEAIRAVEAFLNALQNEDFDTVDAALGDDLVYENVGFSRIRGGRRTATLLRRMQGRVGFEVKIHRIGADGAAVLTERTDALIIGPLRVQFWVCGVFEVDDGRITLWRDYFDVYDMFKGLLRGLVALVVPSLKATL,soluble
4,MARPIGIYEKATPKQFTWRERLQFAKDLGFDFVEMSVDESDARLARLEWTKEERLDLVKAIYETGIRIPTICFSGHRRYPLGSNDPAIEAKSLKLMKQCIELAQDLGVRTIQLAGYDVYYEKKSPETRARFIKNLRQSCDWAEEAQVMLSIEIMDDPFINSIEKYLAVEKEIDSPYLFVYPDAGNVSAWHNDLWSEFYNGHKSIAALHLKDTYAVTETSKGQFRDVPFGQGCVDWQELFAVLKKTNYNGPFLIEMWSENCDTVEETKAAIKEAQDFLYPLIEKAGLT,not soluble
5,MKTLNNTHIGQIYYIHKIIGKNQAKLRDLGMISDKKITLISTDGENAIVKIDETRLALSSEFLEQIFVKEERSSEDIIGLAHLQVGQTGVVRMIDATSDIRRRLMDMGITRGTSVHLQKLAPLGDPLELRLRGYSLSLRKTDAEKIKVVLERLEHHHHHH,soluble
6,MGSDKIHHHHHHMAFTHTVGQHRHVFADLRTLLAKASPARSGDYLAGIAAASEEERMAARMALAAVPLTQFLSEALVPYEDDEVTRLIVDSHDAVAFAEIASLTVGDFRNWLLLHETDSTTLATVARGITPEMAAAVSKLMRNQDLIAVARKCHVVTRFRSTVGLPGRLSVRLQPNHPTDDPKGIAASIIDGLMYGCGDATIGVNPVSDSLGAIVSLLRMIDDLRCRYDIPTQSCVLTHVTHTLRAMEQGAPVDLVFQSVAGSERANAAFGISLSLLAEAHDAAQALARGTVGDNVMYFETGQGSALSANAHHGVDQQTMEARAYAVARRFSPLLVNTVVGFIGPEYLYDGKQIIRAGLEDHFCGKLLGVPMGCDVCYTNHAEADQDDMDTLLTLFGVAGINFIMGVPGADDIMLNYQSTSFHDALYLREVLGLRPAPEFEAWLQRMGIADGSGRLLEPAERQPLLELAHTL,not soluble
7,MITMKIEDVYIWDINARWLGVTPYQLMENAGASVARVIEEKFGKNLKIAVFCGTGNNGGDGFVAARHLSYENDVTVFLIGEEVKIRSEEAKLNWNILKNLDFVKIKVLKDSSQIRELDLSEFDIIVDALLGAGTRGKPREPIKSAIEKINEYSGKVKIVSIDLPSGYPSEIRVKADFAVTFQWDKEEFKDFKRIIAKIGYPKELKYLVGPAHVKFAYKRKGEHKGQNGKLLIIGGSENYYGAPVLAASAAKHLVDLVFLLLPQNAARRVNDPDLIVREVDGLNFTPEHIKSALELVEKVDAIVIGPGIGVREETKEFVKGIIERVEKPIVVDADGLKIIAEFKDILKGKEIVLTPHAGEFKLLFGEKVPEDLVEKGKVVMRRAKEIGATILLKGKYDVISDGKVWLYNKTGNRGMTTGGTGDVLAGTVGAFLALGNKALKAAAAGAFLVGFAGDLVMEEKGEAFTARDVAEKIPIALKKIIEF,soluble
8,MGSDKIHHHHHHMSLLKITQGLFRLSDTRMLRLDELTLEQNQCWAFVGANGSGKSALARALSGELPLLSGERTTGFQHPVRLSFEQLQKLVSDEWQRNNTDLLSEGEDDTGRTTAEVIQDSLNDPTRCQQLACQFGIAHLLERRFKYLSTGETRKAMLCQALMPQPDLLILDEPFDGLDVTSRQQLADELRKLVDTGYTLVLILNRFDDIPDFINHIGVLADCTLTRIGEREAILSEALVAQLAFSEKLSGSSLPEPEDPQRHVTLPADEAHILLRNGVVQYNDRPILHELTWEVFPGQHWQIIGPNGAGKSTLLSLITGDHPQGYSNDLTLFGRKRGSGETIWDIKRHIGYVSSSLHLDYRVSTSVRNVILSGFFDSIGIYQAVSDRQRHLTEQWLILLGLSGAIADTPFQSLSWGQQRLTLIARALVKHPALLILDEPLQGLDPLNRQLVRRWLDILIGEGETQLLFVSHHAEDAPECITHRLTFVPHNDIYRYQIDELCK,not soluble
9,MSLATEIVENMFCVNAPAGSGKTTKIKSMIVNHKIKHPIDNILCITYTKRAAEELNKDFNEEGIHISTIHSFLHKFLKIYFCKTEMKDLYFEMFEDLIKESIENKEEKEHIVTRNQKYIEKHGCLSVESIKANIDAIYYNESSNNHLYTGGLAHDSLLLFAEKVFDKFPKIKMRLTQKYQSIFIDEYQDSAASVLRMFYKACLNTKSNLYFLGDKMQQIYKNYDGSFEEELKTLNTDIKLDINHRSIPDIVSVLNNIYNDKGFKQNPSKKNLDIKPDHPPRIIMCDNIQERLKRECSIYPDALLLFLLNQQKFASIGARELYKQFSHLERYSHAKQLSATDVLSDNTSENTDPLLKLLFIVGEVVDYYKKSNVGSIIQIFKANRKLFDMGIGTITSHRDRIDLTKLLKQLYEDYHKEISISEFLTLLRGCNEGHHHHHH,not soluble
10,MKLHEHQAKEIFAKYGIPVPEGKVAFSLKEAKEVAEELGEFPLVVKAQIHCGGRGKAGGVKIVKDMDELEKAVESLLGKVLKTFQCPDGKPVNRVLIEKATNIDKEYYLAITLDRSKSKPVIMASAAGGMEIEEIVKENPEAIIIETIDPELGLMPYQARELAFKLNLPVKEFASIALKLYQIYSDLDASLVEINPLVLTKEGNLIALDAKLDIDDNALFRHKDLEEMEDETQLPQLEVEAKKYGLNYIKLNGNIGCMVNGAGLAMATMDIIKLAGGEPANFLDVGGGANVEQIANAFRILMADPDVKAVFINIFGGILRVDRLAQGLIEASKMVELRVPIVARLEGTNVEEGKRMLQESGLNFIIAEDMWDGAKKAVEIANKQS,soluble
11,MATTTMTMIQALRSAMDVMLERDDNVVVYGQDVGYFGGVFRCTEGLQTKYGKSRVFDAPISESGIVGTAVGMGAYGLRPVVEIQFADYFYPASDQIVSEMARLRYRSAGEFIAPLTLRMPCGGGIYGGQTHSQSPEAMFTQVCGLRTVMPSNPYDAKGLLIASIECDDPVIFLEPKRLYNGPFDGHHDRPVTPWSKHPHSAVPDGYYTVPLDKAAITRPGNDVSVLTYGTTVYVAQVAAEESGVDAEVIDLRSLWPLDLDTIVESVKKTGRCVVVHEATRTCGFGAELVSLVQEHCFHHLEAPIERVTGWDTPYPHAQEWAYFPGPSRVGAALKKVMEV,soluble
12,MKHLPQLEGVSVGLEGEAVSLFWGEIKEEERQEIYECAKALVPWRKGPFWVGDFLIDSEWVSAKKYALLEPHFDLCNKDVADIGCNNGYYMFRMWGQKPKSLTGFDPSPLCRTQFDFINHFIQAPIRFELLGVEHLEGYGKLFDVIFCLGVLYHRSDPIQTLKSLYKGLAKGGELLLDTLMIEGEEEVALTPKDRYAKMSNVYFIPTFKALSHWLHRAGFERVEKLEIAKTGLDEQRKTEWINSQSLEDFLDPCSHDRTIEGYPAPRRIYVKAYKGA,not soluble
13,MGSDKIHHHHHHMALASTLATCLNSKNTQYDIIHHPYTLSSMATAEAAHIPGDRLAKTLLLEDEMGYVAAVIPSNHHLHMAALCEQTGRKLVLAHEDEIREVFKDCDLGAIPPVAMAYGMQTYVDDSLMKHPDVYFEAGDHQELVHMSMDQFSSLMSDAEQGHFSRRMM,not soluble
14,MAGDIILRVEDLEKRFGGIVALDKVNLEIERGKVTLLIGPNGSGKTTLVNVISGFYKPDGGRVLFKGRDITGMSPHEISKLGLVRTFQIPKPFTNLTVLENVLTAADSPGENVYLAGLARRLWLGFEKRAAARAFEILGWVGLDHMWDRRSGELSGGQMKLLEIARAIMKGAEMIIMDEPAAGVNPRLAGSIMERIKYLAREKGITFLIIEHRIGLVKEYVDRVYAMSMGKVIASGKPDEVLNNPVVLESYLGG,soluble
15,MTSGTTRWLDDCTPRALERFADELIAMAEQREDEARRRFYEGMAVAAKLIALRWEGKCAYIDDHLLDNVYEALAVFSLEKLEKTLAMEAEEAHGGGRCSFCLKEKPRLAKGPLAAICDDCLQFGLQVIAKQP,not soluble
16,MAHHHHHHMERYESIAERAGFARSQVLPRGSGGSSSASVCYENAANYLQHARGADYATASCSVPVDIWDALCQGEASVLRVGQLGEGRQRLIAYESCTTSSHSGDLSSRLASLEKSLDKLLSEFPKTAEELVTLDYNASLCSAAARSVLTAVPSFLSISGLLRTINNKLCSLDGFSREVLPLMRCDDDVSRQCLLVAGRLDTLEEKLRTTEALVAALGHTSAASNAIFERIGARYGETTRAATM,not soluble
17,MFFIMNYHIDWLTIEQDFGFEIPESILAAIFDFGMVGIHLDTGEMQEGIKTGKYRHKGSFCDEVSIKVSGSVIKMEGNPSRWGKVENVLGFTDVDSCVACFNNILFSLNLPLFTRCTEVFYLQGKEGEKVKKFSNGAIIKRLDITTNKSVGKGNERTFLKALSQMRYRNSVGRLHTNHCTVDWLSEKGNANLIYPSCYIKHEEMKLHSYDKIKNKFGQQAKEFQYYQKVFDYCLENGVVRFEQKLKSRYLQRENLCYWGLSDFSKLNEIQDGFINMYKKLSVSEVKLETIAQQLVSQGVVDTLRKANTTAYYAMRWSSGEDLSLLPIATFKRHRAILRKIGIDIANPCDIEKFQAVRVISCEQIFVKPFKAPDFYQYPSNMPQLRLVALEHHHHHH,not soluble
18,TWVVSPAEKAKYDEIFLKTDKDMDGFVSGLEVREIFLKTGLPSTLLAHIWSLCDTKDCGKLSKDQFALAFHLISQKLIKGIDPPHVLTPEMIPPS,soluble
19,PISNIFAGLLFYVLSDYVTEDTGIRITRAELEKTIVEHGGKLIYNVILKRHSIGDVRLISCKTTTECKALIDRGYDILHPNWVLDCIAYKRLILIEPNYCFNVSQKMRAVAEKRVDCLGDSFENDISETKLSSLYKSQLSLPPMGELEIDSEVRRFPLFLFSNRIAYVPRRKISTEDDIIEMKIKLFGGKITDQQSLCNLIIIPYTDPILRKDCMNEVHEKIKEQIKASDTIPKIARVVAPEWVDHSINENCQVPEEDFPVVNY,soluble
20,PMLEVFYSGDRPPDRTRKQAFAAEASAIFQRVIGTPPGRLQLIIQIVSPENTLAVIDLDRPDSDTTAEPDQQ,soluble
21,MRRVSINSFLEPNSPNVPNRVTIPDGDLRRNSDDTATDRISLTNQLGKSAYSTTTEDSIDSETSETRMDSSRTSEISGNVKEDPVSENQYVLENSESSESIVVDLEMPGMTLRSKASPRKRYMSKKEKDLNDEKKNFKDLVLTIGQNQIQDPDEDFQITKEAIDLLQSESDKILLEMFTSSNAIATAGERDILTPTDIQTARHIQMIMKKYKK,not soluble
22,MGSDKIHHHHHHMKSDLELKHDVDQELLWDPALDARNVTATVLNRIVTLEGSVNSCAQKLALQKAVQRVAGSRAVVLDLVVRAPSPLRHTDEDLAAAIVSALQWQEGLPEDAIRVVVEHGCVTLTGEVDYGFQRQMAEVLVSRMRGVVGVANQIEVRIDPVAADVSKHIAEALQRRSRRESGGISVDVHDGVVRLTGVADSLLESVWPAASPGAPRACGGWSTSWSSHESRRLALHAFPSCLNQL,not soluble
